In doi:10.1101/2024.09.25.614892 (bioRxiv, 2024):
Read-outs that look alike come from different tables or passages of the source.

B5: FliC (flagellin) of Salmonella enterica (natural protein, UniProt P06179 1-495, looked up)
chain: MAQVINTNSLSLLTQNNLNKSQSALGTAIERLSSGLRINSAKDDAAGQAIANRFTANIKGLTQASRNANDGISIAQTTEGALNEINNNLQRVRELAVQSANSTNSQSDLDSIQAEITQRLNEIDRVSGQTQFNGVKVLAQDNTLTIQVGANDGETIDIDLKQINSQTLGLDTLNVQQKYKVSDTAATVTGYADTTIALDNSTFKASATGLGGTDQKIDGDLKFDDTTGKYYAKVTVTGGTGKDGYYEVSVDKTNGEVTLAGGATSPLTGGLPATATEDVKNVQVANADLTEAKAALTAAGVTGTASVVKMSYTDNNGKTIDGGLAVKVGDDYYSATQNKDGSISINTTKYTADDGTSKTALNKLGGADGKTEVVSIGGKTYAASKAEGHNFKAQPDLAEAAATTTENPLQKIDAALAQVDTLRSDLGAVQNRFNSAITNLGNTVNNLTSARSRIEDSDYATEVSNMSRAQILQQAGTSVLAQANQVPQNVLSLLR

Key:
Test in all cases: cryo-EM structure
cryo-EM structure [1] = target: the molecule itself
[2] = target: B5
cryo-EM structure [3] = target: the molecule itself; remark: listed apart in the source
[4] = target: B5; remark: listed apart in the source
cryo-EM structure [5] = target: the molecule itself; remark: listed apart in the source

B1: FlgK (hook-filament junction protein) of Salmonella enterica (natural protein, UniProt P0A1J5 1-553, looked up)
chain: MSSLINHAMSGLNAAQAALNTVSNNINNYNVAGYTRQTTILAQANSTLGAGGWIGNGVYVSGVQREYDAFITNQLRGAQNQSSGLTTRYEQMSKIDNLLADKSSSLSGSLQSFFTSLQTLVSNAEDPAARQALIGKAEGLVNQFKTTDQYLRDQDKQVNIAIGSSVAQINNYAKQIANLNDQISRMTGVGAGASPNDLLDQRDQLVSELNKIVGVEVSVQDGGTYNLTMANGYTLVQGSTARQLAAVPSSADPTRTTVAYVDEAAGNIEIPEKLLNTGSLGGLLTFRSQDLDQTRNTLGQLALAFADAFNAQHTKGYDADGNKGKDFFSIGSPVVYSNSNNADKTVSLTAKVVDSTKVQATDYKIVFDGTDWQVTRTADNTTFTATKDADGKLEIDGLKVTVGTGAQKNDSFLLKPVSNAIVDMNVKVTNEAEIAMASESKLDPDVDTGDSDNRNGQALLDLQNSNVVGGNKTFNDAYATLVSDVGNKTSTLKTSSTTQANVVKQLYKQQQSVSGVNLDEEYGNLQRYQQYYLANAQVLQTANALFDALLNIR
stoichiometry N (cryo-EM structure [1]): 11 subunits

B2: FlgL (hook-filament junction protein) of Salmonella enterica (natural protein, UniProt P16326 1-317, looked up)
chain: MRISTQMMYEQNMSGITNSQAEWMKLGEQMSTGKRVTNPSDDPIAASQAVVLSQAQAQNSQYALARTFATQKVSLEESVLSQVTTAIQTAQEKIVYAGNGTLSDDDRASLATDLQGIRDQLMNLANSTDGNGRYIFAGYKTEAAPFDQATGGYHGGEKSVTQQVDSARTMVIGHTGAQIFNSITSNAVPEPDGSDSEKNLFVMLDTAIAALKTPVEGNNVEKEKAAAAIDKTNRGLKNSLNNVLTVRAELGTQLSELSTLDSLGSDRALGQKLQMSNLVDVDWNSVISSYVMQQAALQASYKTFTDMQGMSLFQLNR
binding result [2]: binds | stoichiometry N (cryo-EM structure [1]): 11 subunits

B3: FliD (flagellar filament cap protein) of Campylobacter jejuni (natural protein, UniProt Q9PHW6 1-642, looked up)
chain: MAFGSLSSLGFGSGVLTQDTIDKLKEAEQKARIDPYTKKIEENTTKQKDLTEIKTKLLSFQTAVSSLADATVFAKRKVVGSISDNPPASLTVNSGVALQSMNINVTQLAQKDVYQSKGLANDGGFVNAQLNGTADLTFFSNGKEYTVTVDKNTTYRDLADKINEASGGEIVAKIVNTGEKGTPYRLTLTSKETGEDSAISFYAGKKDSNGKYQKDINAEKIFDDLGWGLDVSASIDPDKDKKGYGIKDASLHIQTAQNAEFTLDGIKMFRSSNTVTDLGVGMTLTLNKTGEINFDVQQDFEGVTKAMQDLVDAYNDLVTNLNAATDYNSETGTKGTLQGISEVNSIRSSILADLFDSQVVDGTTEDANGNKVNTKVMLSMQDFGLSLNDAGTLSFDSSKFEQKVKEDPDSTESFFSNITKYEDINHTGEVIKTGSLSKYLNSNGGNTNGLEFKPGDFTIVFNNQTYDLSKNSDGTNFKLTGKTEEELLQNLANHINSKGIEGLKVKVESYNQNNVTGFRLNFSGDGSSDFSIKGDANILKELGLSDVNITSKPIEGKGIFSKLKATLQEMTGKDGSITKYDESLTNDIKSLNTSKDSTQAMIDTRYDTMANQWLQYESILNKLNQQLNTVTNMINAANNSNN
stoichiometry N (cryo-EM structure [3]): 5 subunits

B4: FlgL (hook-filament junction protein) of Campylobacter jejuni (natural protein, UniProt A0A5T0WDM5 1-750, looked up)
chain: MRITNKLNFTNSVNNSMGGQSALYQISQQLASGLKIQNSYEDASTYIDNTRLEYEIKTLEQVKESTSRAQEMTQNSMKALQDMVKLLEDFKVKVTQAASDSNSQTSREAIAKELERIKESIVQLANTSVNGQYLFAGSQVANKPFDSNGNYYGDKNNINVVTGAGTESPYNIPGWDLFFKADGDYKKQISTNVSFTDNRWDLNKDPDKTKYLTGDSKWQQLIGQGYVKDNSLDADKDFEYDDSKLDFPPTTLYVQGTKPDGTSFKSAVLVKPEDTLEDVMENIGALYGNTPNNKVVEVSMNDSGQIQITDLKQGNNKLDFHAVAFTPQADTKDELKNIIEAANQEGISMNEVTNRVMQAATAAPSNGDITKLNNPVTVTINNQQFTIDLKQTDFIKSKMTDTDGNAANGADYDNVYFEKNGNTVYGNVSQVIKGSNAYATDSTKLSEVMAGDSLNGTTLNLKVNSKGGNSYDVTINLQTSTVSYPDPNNPGQTISFPIMHTNPATGNSGVVTGSNDITYGQINDIIGMFAADKIPTTTIQANNGQINNADYTQIQQLMKDSQATVDVSMDYKGRISVTDKLSSGTNIEISLSDSQSGQFPAPPFTTTSTVQNGPNFSFSANNSLTIDEPNVDIIKDLDSMIDAVLKGNMRADSESENPRNTGMQGALERLDHLADHVSKLNTTMGAYHNTIEGVNTRTSFLSVNVQSIKSNVIDVDYGEAMMNLMQVQLAYQASLKASTTISQLSLLNYM
stoichiometry N (cryo-EM structure [3]): 11 subunits

B5
binding result (cryo-EM structure [1]): binds

B6: FlgE (flagellar hook protein) of Salmonella enterica (natural protein, UniProt P0A1J1 1-403, looked up)
chain: MSFSQAVSGLNAAATNLDVIGNNIANSATYGFKSGTASFADMFAGSKVGLGVKVAGITQDFTDGTTTNTGRGLDVAISQNGFFRLVDSNGSVFYSRNGQFKLDENRNLVNMQGMQLTGYPATGTPPTIQQGANPAPITIPNTLMAAKSTTTASMQINLNSTDPVPSKTPFSVSDADSYNKKGTVTVYDSQGNAHDMNVYFVKTKDNEWAVYTHDSSDPAATAPTTASTTLKFNENGILESGGTVNITTGTINGATAATFSLSFLNSMQQNTGANNIVATNQNGYKPGDLVSYQINNDGTVVGNYSNEQEQVLGQIVLANFANNEGLASQGDNVWAATQASGVALLGTAGSGNFGKLTNGALEASNVDLSKELVNMIVAQRNYQSNAQTIKTQDQILNTLVNLR
binding result (cryo-EM structure [1]): binds

B7: FliD (flagellar filament cap protein) of Salmonella enterica (natural protein, UniProt P16328 1-467, looked up)
chain: MASISSLGVGSNLPLDQLLTDLTKNEKGRLTPITKQQSANSAKLTAYGTLKSALEKFQTANTALNKADLFKSTVASSTTEDLKVSTTAGAAAGTYKINVTQLAAAQSLATKTTFATTKEQLGDTSVTSRTIKIEQPGRKEPLEIKLDKGDTSMEAIRDAINDADSGIAASIVKVKENEFQLVLTANSGTDNTMKITVEGDTKLNDLLAYDSTTNTGNMQELVKAENAKLNVNGIDIERQSNTVTDAPQGITLTLTKKVTDATVTVTKDDTKAKEAIKSWVDAYNSLVDTFSSLTKYTAVEPGEEASDKNGALLGDSVVRTIQTGIRAQFANSGSNSAFKTMAEIGITQDGTSGKLKIDDDKLTKVLKDNTAAARELLVGDGKETGITTKIATEVKSYLADDGIIDNAQDNVNATLKSLTKQYLSVSNSIDETVARYKAQFTQLDTMMSKLNNTSSYLTQQFTAMNKS
binding result [4]: binds | stoichiometry N (cryo-EM structure [5]): 5 subunits

B8: FlgK (hook-filament junction protein) of Campylobacter jejuni (natural protein, UniProt Q0P8E9 1-608, looked up)
chain: MGIFGTLYTGVTGLKASEVQIATTGNNISNANATFYTRQRVVQTTNGYITTGGVQVGTGTAVESIVRLHDEYSYYKLKGASTQLEYTKYMASTLQEIAQRFPDLQNTGILQDLENYNKAWNDFASNPNENATKIALVKASQTLTESVNNTFATLDKIQKKVNDDIKNTVDEINRIGEEIATINKQIYGQEALPTEHANELRDRRDELELTLSKLVSAVASKNEINQDNRLDTTITDPGHQYNLSIEGFSIVDGINFHPLKLDYDDKNKSYSIYYETPDEKVRDLTAKISGGQLGAQLDLRGRNYSKSEGKYEDGIIQGYMDSLDTFAKTMINETNNLYASSAKSSVTSDYLSGLKGDIPLVNYDRTIQPGSFDIVIYDDKGDKKLTKTITIDVNTTMNDIMRQINANTDDNDNKNSNDDVDDHINASFSYDAKTGDGLFQINAKSGFKVAIEDKGTNFAGAFSIGGFFSGTDASDMKVKDSILNDPSTVRASSNGVDSGNDMANKIIQLQYKKVNFYNEDGTIDNLTMEEYYRKLTGKIASDGENNNVVNSSNETLYNSVYSEYQSKSGVNTNEELAALIQYQSSYGAAAKIVSTVDQMLDTLLGLKS
stoichiometry N (cryo-EM structure [3]): 11 subunits
